# Data reported in patent publication US20140274782A1, “AFFINITY REAGENTS AND METHODS FOR DETECTION, PURIFICATION, AND PROTEOMIC ANALYSIS OF METHYLATED PROTEINS” (The Board of Trustees of the Leland Stanford Junior …, priority 2013, published 2014).
# T1: G9a and GLP (Homo sapiens, UniProt Q96KQ7+Q9H9B1)
# T1 sequence (Q96KQ7 2-1210 limits assumed): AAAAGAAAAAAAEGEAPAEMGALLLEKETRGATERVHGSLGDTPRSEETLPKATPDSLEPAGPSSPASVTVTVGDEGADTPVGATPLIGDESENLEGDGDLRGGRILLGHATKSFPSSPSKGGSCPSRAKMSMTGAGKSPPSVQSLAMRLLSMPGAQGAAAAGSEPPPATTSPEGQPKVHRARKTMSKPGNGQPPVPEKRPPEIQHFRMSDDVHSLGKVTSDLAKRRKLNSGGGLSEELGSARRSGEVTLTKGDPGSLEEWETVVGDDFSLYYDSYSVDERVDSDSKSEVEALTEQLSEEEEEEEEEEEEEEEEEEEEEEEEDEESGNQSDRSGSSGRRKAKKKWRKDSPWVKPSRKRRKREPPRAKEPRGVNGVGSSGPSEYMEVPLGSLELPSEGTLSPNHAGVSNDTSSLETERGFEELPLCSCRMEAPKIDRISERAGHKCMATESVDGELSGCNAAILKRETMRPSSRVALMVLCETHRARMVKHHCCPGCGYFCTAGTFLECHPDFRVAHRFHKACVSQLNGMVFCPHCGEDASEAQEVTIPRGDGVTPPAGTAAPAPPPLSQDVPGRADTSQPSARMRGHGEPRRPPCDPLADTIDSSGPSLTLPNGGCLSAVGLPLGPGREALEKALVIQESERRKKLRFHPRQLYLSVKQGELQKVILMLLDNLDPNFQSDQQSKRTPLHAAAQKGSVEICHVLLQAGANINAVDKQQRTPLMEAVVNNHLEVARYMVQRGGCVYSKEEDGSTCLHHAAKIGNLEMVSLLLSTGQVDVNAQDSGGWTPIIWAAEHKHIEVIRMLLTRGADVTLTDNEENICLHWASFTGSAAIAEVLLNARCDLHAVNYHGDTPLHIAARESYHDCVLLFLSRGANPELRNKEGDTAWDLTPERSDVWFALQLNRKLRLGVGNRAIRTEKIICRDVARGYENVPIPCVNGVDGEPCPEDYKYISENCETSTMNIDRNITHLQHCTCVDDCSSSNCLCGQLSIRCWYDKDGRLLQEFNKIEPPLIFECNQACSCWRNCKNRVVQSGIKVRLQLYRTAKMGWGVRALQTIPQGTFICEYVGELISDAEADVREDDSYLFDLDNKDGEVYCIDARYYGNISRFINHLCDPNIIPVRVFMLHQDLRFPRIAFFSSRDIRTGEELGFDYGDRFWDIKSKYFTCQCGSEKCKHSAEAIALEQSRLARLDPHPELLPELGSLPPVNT
# T1 sequence (Q9H9B1 2-1298 limits assumed): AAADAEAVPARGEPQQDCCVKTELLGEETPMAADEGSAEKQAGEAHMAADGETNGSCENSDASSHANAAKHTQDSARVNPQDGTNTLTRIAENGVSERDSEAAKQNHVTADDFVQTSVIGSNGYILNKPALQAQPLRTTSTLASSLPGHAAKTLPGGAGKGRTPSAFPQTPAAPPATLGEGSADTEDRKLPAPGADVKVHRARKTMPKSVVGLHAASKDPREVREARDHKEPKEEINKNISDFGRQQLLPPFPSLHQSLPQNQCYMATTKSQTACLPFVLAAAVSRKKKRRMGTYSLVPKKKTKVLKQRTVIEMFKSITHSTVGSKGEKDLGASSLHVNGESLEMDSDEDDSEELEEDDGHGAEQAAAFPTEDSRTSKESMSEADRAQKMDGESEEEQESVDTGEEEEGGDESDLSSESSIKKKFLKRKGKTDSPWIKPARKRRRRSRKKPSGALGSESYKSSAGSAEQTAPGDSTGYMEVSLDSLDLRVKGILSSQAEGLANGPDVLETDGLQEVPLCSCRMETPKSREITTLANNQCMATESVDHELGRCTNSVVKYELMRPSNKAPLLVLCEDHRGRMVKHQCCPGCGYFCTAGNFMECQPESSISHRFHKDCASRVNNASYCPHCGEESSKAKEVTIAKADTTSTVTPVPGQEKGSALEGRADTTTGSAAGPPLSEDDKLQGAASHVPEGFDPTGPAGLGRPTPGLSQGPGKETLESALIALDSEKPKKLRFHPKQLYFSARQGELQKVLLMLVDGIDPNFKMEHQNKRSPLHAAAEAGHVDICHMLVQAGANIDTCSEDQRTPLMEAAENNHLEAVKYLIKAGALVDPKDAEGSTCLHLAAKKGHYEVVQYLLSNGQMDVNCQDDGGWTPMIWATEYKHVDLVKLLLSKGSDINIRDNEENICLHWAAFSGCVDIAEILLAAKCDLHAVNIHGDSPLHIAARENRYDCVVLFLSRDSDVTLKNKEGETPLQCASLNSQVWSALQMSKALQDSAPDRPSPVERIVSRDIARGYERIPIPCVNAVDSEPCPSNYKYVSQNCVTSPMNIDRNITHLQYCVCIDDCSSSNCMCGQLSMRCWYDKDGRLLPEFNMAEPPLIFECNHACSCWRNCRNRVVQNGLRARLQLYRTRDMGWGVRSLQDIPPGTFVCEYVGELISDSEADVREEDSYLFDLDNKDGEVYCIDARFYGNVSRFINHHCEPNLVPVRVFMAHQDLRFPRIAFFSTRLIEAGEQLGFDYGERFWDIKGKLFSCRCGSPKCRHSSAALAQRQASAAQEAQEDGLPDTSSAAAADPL
# Key:
# [1] = test system: 3×MBT domain of L3MBTL1; assay: Triple SILAC pull-down, 3xMBT/3xMBTD355N ratio (cytoplasmic, nuclear and chromatin fractions of 293T cells); assay type: binding, human; settings: SILAC ratio 3xMBT vs 3xMBTD355N pull-down, 293T cells, all values in log base 2; for 3xMBT/D355N UNC Heavy: experiment with UNC0638 in heavy SILAC media; for 3xMBT/D355N UNC Light: experiment with UNC0638 in light SILAC media;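 on all read-outs here: proteins quantified with MaxQuant, requiring at least two unique peptides and quantification in both label directions, normalized to the mean of proteins from a digested loading control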
# [2] = biological target: T1, G9a and GLP; assay: Triple SILAC pull-down after UNC0638 treatment of 293T cells, DMSO/UNC0638 ratio of protein captured by 3×MBT; assay type: cell-based; design: endogenous in cells; host or cells: HEK 293T; settings: all values in log base 2; for Relative to UNC0638 UNC Heavy / Relative to UNC0638 UNC Light: SILAC ratio DMSO relative to UNC0638, pull-down with 3xMBT; for Relative to UNC0638 UNC Heavy: UNC0638 in heavy SILAC media; for Relative to UNC0638 UNC Light: UNC0638 in light SILAC media; for Relative to UNC0638 Average: average of UNC Light and UNC Heavy experiments;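 on all read-outs here: mass spectrometry (Q-Exactive) SILAC quantitation, DMSO/UNC0638 ratio computed after subtracting 3×MBTD355N mutant pull-down background, only proteins with at least twofold 3×MBT over mutant signal considered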
Relative to UNC0638 UNC Heavy [2],Relative to UNC0638 UNC Light [2],Relative to UNC0638 Average [2],Molecule,3xMBT/D355N UNC Heavy [1],3xMBT/D355N UNC Light [1]
0.03 log base 2,0.03 log base 2,0.03 log base 2,"XPC (protein, UniProt Q01831 2-940, looked up) DNA repair protein …: ARKRAAGGEPRGRELRSQKSKAKSKARREEEEEDAFEDEKPPKKSLLSKVSQGKRKRGCSHPGGSADGPAKKKVAKVTVKSENLKVIKDEALSDGDDLRDFPSDLKKAHHLKRGATMNEDSNEEEEESENDWEEVEELSEPVLGDVRESTAFSRSLLPVKPVEIEIETPEQAKTRERSEKIKLEFETYLRRAMKRFNKGVHEDTHKVHLLCLLANGFYRNNICSQPDLHAIGLSIIPARFTRVLPRDVDTYYLSNLVKWFIGTFTVNAELSASEQDNLQTTLERRFAIYSARDDEELVHIFLLILRALQLLTRLVLSLQPIPLKSATAKGKKPSKERLTADPGGSSETSSQVLENHTKPKTSKGTKQEETFAKGTCRPSAKGKRNKGGRKKRSKPSSSEEDEGPGDKQEKATQRRPHGRERRVASRVSYKEESGSDEAGSGSDFELSSGEASDPSDEDSEPGPPKQRKAPAPQRTKAGSKSASRTHRGSHRKDPSLPAASSSSSSSKRGKKMCSDGEKAEKRSIAGIDQWLEVFCEQEEKWVCVDCVHGVVGQPLTCYKYATKPMTYVVGIDSDGWVRDVTQRYDPVWMTVTRKCRVDAEWWAETLRPYQSPFMDREKKEDLEFQAKHMDQPLPTAIGLYKNHPLYALKRHLLKYEAIYPETAAILGYCRGEAVYSRDCVHTLHSRDTWLKKARVVRLGEVPYKMVKGFSNRARKARLAEPQLREENDLGLFGYWQTEEYQPPVAVDGKVPRNEFGNVYLFLPSMMPIGCVQLNLPNLHRVARKLDIDCVQAITGFDFHGGYSHPVTDGYIVCEEFKDVLLTAWENEQAVIERKEKEKKEKRALGNWKLLAKGLLIRERLKRRYGPKSEAAAPHTDAGGGLSSDEEEGTSSQAEAARILAASWPQNREDEEKQKLKGGPKKTKREKKAAASHLFPFEQL",2.62 log base 2,3.99 log base 2
0.15 log base 2,−0.08 log base 2,0.03 log base 2,"MARS (protein, UniProt P56192 1-900, looked up) Methionine--tRNA ligase, …: MRLFVSDGVPGCLPVLAAAGRARGRAEVLISTVGPEDCVVPFLTRPKVPVLQLDSGNYLFSTSAICRYFFLLSGWEQDDLTNQWLEWEATELQPALSAALYYLVVQGKKGEDVLGSVRRALTHIDHSLSRQNCPFLAGETESLADIVLWGALYPLLQDPAYLPEELSALHSWFQTLSTQEPCQRAAETVLKQQGVLALRPYLQKQPQPSPAEGRAVTNEPEEEELATLSEEEIAMAVTAWEKGLESLPPLRPQQNPVLPVAGERNVLITSALPYVNNVPHLGNIIGCVLSADVFARYSRLRQWNTLYLCGTDEYGTATETKALEEGLTPQEICDKYHIIHADIYRWFNISFDIFGRTTTPQQTKITQDIFQQLLKRGFVLQDTVEQLRCEHCARFLADRFVEGVCPFCGYEEARGDQCDKCGKLINAVELKKPQCKVCRSCPVVQSSQHLFLDLPKLEKRLEEWLGRTLPGSDWTPNAQFITRSWLRDGLKPRCITRDLKWGTPVPLEGFEDKVFYVWFDATIGYLSITANYTDQWERWWKNPEQVDLYQFMAKDNVPFHSLVFPCSALGAEDNYTLVSHLIATEYLNYEDGKFSKSRGVGVFGDMAQDTGIPADIWRFYLLYIRPEGQDSAFSWTDLLLKNNSELLNNLGNFINRAGMFVSKFFGGYVPEMVLTPDDQRLLAHVTLELQHYHQLLEKVRIRDALRSILTISRHGNQYIQVNEPWKRIKGSEADRQRAGTVTGLAVNIAALLSVMLQPYMPTVSATIQAQLQLPPPACSILLTNFLCTLPAGHQIGTVSPLFQKLENDQIESLRQRFGGGQAKTSPKPAVVETVTTAKPQQIQALMDEVTKQGNIVRELKAQKADKNEVAAEVAKLLDLKKQLAVAEGKPPEAPKGKKKK",1.87 log base 2,1.56 log base 2
−0.03 log base 2,0.05 log base 2,0.01 log base 2,"PAICS (protein, UniProt P22234 2-425, looked up) Bifunctional …: ATAEVLNIGKKLYEGKTKEVYELLDSPGKVLLQSKDQITAGNAARKNHLEGKAAISNKITSCIFQLLQEAGIKTAFTRKCGETAFIAPQCEMIPIEWVCRRIATGSFLKRNPGVKEGYKFYPPKVELFFKDDANNDPQWSEEQLIAAKFCFAGLLIGQTEVDIMSHATQAIFEILEKSWLPQNCTLVDMKIEFGVDVTTKEIVLADVIDNDSWRLWPSGDRSQQKDKQSYRDLKEVTPEGLQMVKKNFEWVAERVELLLKSESQCRVVVLMGSTSDLGHCEKIKKACGNFGIPCELRVTSAHKGPDETLRIKAEYEGDGIPTVFVAVAGRSNGLGPVMSGNTAYPVISCPPLTPDWGVQDVWSSLRLPSGLGCSTVLSPEGSAQFAAQIFGLSNHLVWSKLRASILNTWISLKQADKKIRECNL",1.12 log base 2,1.04 log base 2
0.09 log base 2,−0.02 log base 2,0.04 log base 2,"DNAJC9 (protein, UniProt Q8WXX5 1-260, looked up) DnaJ homolog subfamily C …: MGLLDLCEEVFGTADLYRVLGVRREASDGEVRRGYHKVSLQVHPDRVGEGDKEDATRRFQILGKVYSVLSDREQRAVYDEQGTVDEDSPVLTQDRDWEAYWRLLFKKISLEDIQAFEKTYKGSEEELADIKQAYLDFKGDMDQIMESVLCVQYTEEPRIRNIIQQAIDAGEVPSYNAFVKESKQKMNARKRRAQEEAKEAEMSRKELGLDEGVDSLKAAIQSRQKDRQKEMDNFLAQMEAKYCKSSKGGGKKSALKKEKK",2.56 log base 2,1.85 log base 2
